Reference: patent US5871995

Tests used:
[1] = target: phenylalanyl-glycyl-phenylalanyl-hydroxylglycine
[2] = target: phenylalanyl-glycyl-phenylalanyl-glycine

Enzyme activity n mole/h/ml medium, PheGlyPhehydroxyGly to PheGlyPhe-NH2 + glyoxylic acid (n mole/h/ml medium) [1]	Enzyme activity n mole/h/ml medium, PheGlyPheGly to PheGlyPhehydroxyGly (n mole/h/ml medium) [2]	Substance
10.8	0.4	Enzyme expressed from plasmid SV-b (Signal sequence + C-terminal domain) in COS-7 cells (from UniProt P14925)
4.2	2.5	Enzyme expressed from plasmid SV-203 (Signal sequence + N-terminal domain + C-terminal domain) in COS-7 cells (from UniProt P14925)
< 2	2.8	Enzyme expressed from plasmid SV-a (Signal sequence + N-terminal domain) in COS-7 cells (from UniProt P14925)
